The term Kd denotes the equilibrium constant for the complex coming apart. Read a low Kd as higher affinity.

The labels stand for the following.
B1: TTC7A (natural protein)
chain: MAAKGAHGSYLKVESELERCRAEGHWDRMPELVRQLQTLSMPGGGGNRRGSPSAAFTFPDTDDFGKLLLAEALLEQCLKENHAKIKDSMPLLEKNEPKMSEAKNYLSSILNHGRLSPQYMCEAMLILGKLHYVEGSYRDAISMYARAGIDDMSMENKPLYQMRLLSEAFVIKGLSLERLPNSIASRFRLTEREEEVITCFERASWIAQVFLQELEKTTNNSTSRHLKGCHPLDYELTYFLEAALQSAYVKNLKKGNIVKGMRELREVLRTVETKATQNFKVMAAKHLAGVLLHSLSEECYWSPLSHPLPEFMGKEESSFATQALRKPHLYEGDNLYCPKDNIEEALLLLLISESMATRDVVLSRVPEQEEDRTVSLQNAAAIYDLLSITLGRRGQYVMLSECLERAMKFAFGEFHLWYQVALSMVACGKSAYAVSLLRECVKLRPSDPTVPLMAAKVCIGSLRWLEEAEHFAMMVISLGEEAGEFLPKGYLALGLTYSLQATDATLKSKQDELHRKALQTLERAQQLAPSDPQVILYVSLQLALVRQISSAMEQLQEALKVRKDDAHALHLLALLFSAQKHHQHALDVVNMAITEHPENFNLMFTKVKLEQVLKGPEEALVTCRQVLRLWQTLYSFSQLGGLEKDGSFGEGLTMKKQSGMHLTLPDAHDADSGSRRASSIAASRLEEAMSELTMPSSVLKQGPMQLWTTLEQIWLQAAELFMEQQHLKEAGFCIQEAAGLFPTSHSVLYMRGRLAEVKGNLEEAKQLYKEALTVNPDGVRIMHSLGLMLSRLGHKSLAQKVLRDAVERQSTCHEAWQGLGEVLQAQGQNEAAVDCFLTALELEASSPVLPFSIIPREL

In test [1] the target is T1, PI4KA (UniProt P42356 1-2102). The experiment in a line: SEC. In general terms: SEC sorts molecules by how far they enter the pores of the column.
The target in the test “TTC7A” is B1. The experiment in a line: SEC.
Test [2] has as its target TTC7A-FAM126B (1–308) heterodimer (UniProt Q9ULT0;Q8IXS8). The experiment in a line: BLI. Background: Biolayer interferometry detects binding as a change in optical thickness at a sensor tip.
In test [3] the target is TTC7B-FAM126A (1–308) heterodimer (UniProt Q86TV6;Q9BYI3). The experiment in a line: BLI.
Test [4] deals with TTC7B-FAM126B (1–308) heterodimer (UniProt Q86TV6;Q8IXS8). The experiment in a line: BLI.
In test [5] the target is TTC7A-FAM126A (1–308) heterodimer (UniProt Q9ULT0;Q9BYI3). The experiment in a line: BLI.
Test [6] has as its target T1, PI4KA. Briefly: cryo-EM structure.
For test [7], the target named is T2, TTC7B (from the E. coli dimers) (UniProt Q86TV6 1-843).
T2 sequence: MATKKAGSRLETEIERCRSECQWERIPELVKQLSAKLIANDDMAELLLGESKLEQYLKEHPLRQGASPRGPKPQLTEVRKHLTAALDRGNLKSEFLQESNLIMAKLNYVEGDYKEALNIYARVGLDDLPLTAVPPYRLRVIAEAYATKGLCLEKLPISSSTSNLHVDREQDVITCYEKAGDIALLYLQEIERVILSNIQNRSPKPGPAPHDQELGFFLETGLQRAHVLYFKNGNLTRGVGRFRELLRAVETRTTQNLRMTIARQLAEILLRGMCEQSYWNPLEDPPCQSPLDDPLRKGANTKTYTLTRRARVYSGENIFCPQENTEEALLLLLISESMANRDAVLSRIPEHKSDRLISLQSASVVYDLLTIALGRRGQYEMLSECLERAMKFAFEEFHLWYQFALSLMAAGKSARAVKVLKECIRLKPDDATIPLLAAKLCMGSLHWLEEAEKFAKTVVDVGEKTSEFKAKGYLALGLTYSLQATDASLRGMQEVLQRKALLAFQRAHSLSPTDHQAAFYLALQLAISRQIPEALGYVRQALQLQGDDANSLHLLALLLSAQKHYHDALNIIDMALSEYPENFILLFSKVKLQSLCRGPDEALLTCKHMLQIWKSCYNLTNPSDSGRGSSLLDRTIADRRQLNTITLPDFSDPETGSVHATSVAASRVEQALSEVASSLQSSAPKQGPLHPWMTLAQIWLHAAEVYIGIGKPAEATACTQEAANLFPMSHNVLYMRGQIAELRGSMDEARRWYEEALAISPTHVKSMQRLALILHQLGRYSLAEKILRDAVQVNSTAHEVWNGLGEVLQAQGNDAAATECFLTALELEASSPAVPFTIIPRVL
Briefly: SEC.

Take B1: the binding result in the test with PI4KA [1] is listed as “binds”.

B2: FAM126A (1–308) (from the Sf9 complexes) (domain or fragment)
chain: MFTSEKGVVEEWLSEFKTLPETSLPNYATNLKDKSSLVSSLYKVIQEPQSELLEPVCHQLFEFYRSGEEQLLQFTLQFLPELIWCYLAVSASRNVHSSGCIEALLLGVYNLEIVDKQGHTKVLSFTIPSLSKPSVYHEPSSIGSMALTESALSQHGLSKVVYSGPHPQREMLTAQNRFEVLTFLLLCYNAALTYMPSVSLQSLCQICSRICVCGYPRQHVRKYKGISSRIPVSSGFMVQMLTGIYFAFYNGEWDLAQKALDDIIYRAQLELYPEPLLVANAIKASLPHGPMKSNKEGTRCIQVEITPT
For the molecule B2, the binding result in the test with TTC7A is “binds”.

B3: His-tagged MBP-EFR3B (716–787) (domain or fragment)
chain: VPAEEITYETLKKAIVDSVAVEEQERERRRQVVEKFQKAPFEEIAAHCGARASLLQSKLNQIFEITIRPPPS
On to B3, for which the binding result in test [2] and in test [5] was “binds” throughout. For the same molecule, the Kd in test [3] and in test [4] was approximately 0.3 nM in each case.

B4: TTC7B (from the Sf9 PI4KA complex) (natural protein)
chain: MATKKAGSRLETEIERCRSECQWERIPELVKQLSAKLIANDDMAELLLGESKLEQYLKEHPLRQGASPRGPKPQLTEVRKHLTAALDRGNLKSEFLQESNLIMAKLNYVEGDYKEALNIYARVGLDDLPLTAVPPYRLRVIAEAYATKGLCLEKLPISSSTSNLHVDREQDVITCYEKAGDIALLYLQEIERVILSNIQNRSPKPGPAPHDQELGFFLETGLQRAHVLYFKNGNLTRGVGRFRELLRAVETRTTQNLRMTIARQLAEILLRGMCEQSYWNPLEDPPCQSPLDDPLRKGANTKTYTLTRRARVYSGENIFCPQENTEEALLLLLISESMANRDAVLSRIPEHKSDRLISLQSASVVYDLLTIALGRRGQYEMLSECLERAMKFAFEEFHLWYQFALSLMAAGKSARAVKVLKECIRLKPDDATIPLLAAKLCMGSLHWLEEAEKFAKTVVDVGEKTSEFKAKGYLALGLTYSLQATDASLRGMQEVLQRKALLAFQRAHSLSPTDHQAAFYLALQLAISRQIPEALGYVRQALQLQGDDANSLHLLALLLSAQKHYHDALNIIDMALSEYPENFILLFSKVKLQSLCRGPDEALLTCKHMLQIWKSCYNLTNPSDSGRGSSLLDRTIADRRQLNTITLPDFSDPETGSVHATSVAASRVEQALSEVASSLQSSAPKQGPLHPWMTLAQIWLHAAEVYIGIGKPAEATACTQEAANLFPMSHNVLYMRGQIAELRGSMDEARRWYEEALAISPTHVKSMQRLALILHQLGRYSLAEKILRDAVQVNSTAHEVWNGLGEVLQAQGNDAAATECFLTALELEASSPAVPFTIIPRVL
With B4, the binding result in the test with PI4KA [6] is on record as “binds”.

B5: FAM126B (1–308) (from the E. coli dimer) (domain or fragment)
chain: MLGTDRCVVEEWLSEFKALPDTQITSYAATLHRKKTLVPALYKVIQDSNNELLEPVCHQLFELYRSSEVRLKRFTLQFLPELMWVYLRLTVSRDRQSNGCIEALLLGIYNLEIADKDGNNKVLSFTIPSLSKPSIYHEPSTIGSMALTEGALCQHDLIRVVYSDLHPQRETFTAQNRFEVLSFLMLCYNSAIVYMPASSYQSLCRMGSRVCVSGFPRQHEKHWKELCGRIVLDPEFMVQLLTGVYYAMYNGQWDLGQEVLDDIIYRAQLELFSQPLLVANAMKNSLPFDAPDSTQEGQKVLKVEVTPT
Consider B5, for which the binding result in test [7] is recorded as “binds”.

B6: FAM126B (1–308) (from the Sf9 dimer) (domain or fragment)
chain: MLGTDRCVVEEWLSEFKALPDTQITSYAATLHRKKTLVPALYKVIQDSNNELLEPVCHQLFELYRSSEVRLKRFTLQFLPELMWVYLRLTVSRDRQSNGCIEALLLGIYNLEIADKDGNNKVLSFTIPSLSKPSIYHEPSTIGSMALTEGALCQHDLIRVVYSDLHPQRETFTAQNRFEVLSFLMLCYNSAIVYMPASSYQSLCRMGSRVCVSGFPRQHEKHWKELCGRIVLDPEFMVQLLTGVYYAMYNGQWDLGQEVLDDIIYRAQLELFSQPLLVANAMKNSLPFDAPDSTQEGQKVLKVEVTPT
For B6, in the test with TTC7A, the binding result was “binds”.
